Experimental data published in article PMC4820838, “Quantifying the dynamics of the oligomeric transcription factor STAT3 by pair correlation of molecular brightness” (Nature Communications, 2016).

Biological target: the molecule itself
Test: pair correlation of molecular brightness (pCOMB); pair correlation of brightness fluctuations along a 64-pixel confocal line scan from cytoplasm to nucleus of live HeLa cells; amplitude calibrated against free GFP, YFP or mCherry; cells stimulated with 10 nM oncostatin M for 15 min

B1: STAT3-DB-GFP (natural protein, UniProt P40763 1-770, looked up)
chain: MAQWNQLQQLDTRYLEQLHQLYSDSFPMELRQFLAPWIESQDWAYAASKESHATLVFHNLLGEIDQQYSRFLQESNVLYQHNLRRIKQFLQSRYLEKPMEIARIVARCLWEESRLLQTAATAAQQGGQANHPTAAVVTEKQQMLEQHLQDVRKRVQDLEQKMKVVENLQDDFDFNYKTLKSQGDMQDLNGNNQSVTRQKMQQLEQMLTALDQMRRSIVSELAGLLSAMEYVQKTLTDEELADWKRRQQIACIGGPPNICLDRLENWITSLAESQLQTRQQIKKLEELQQKVSYKGDPIVQHRPMLEERIVELFRNLMKSAFVVERQPCMPMHPDRPLVIKTGVQFTTKVRLLVKFPELNYQLKIKVCIDKDSGDVAALRGSRKFNILGTNTKVMNMEESNNGSLSAEFKHLTLREQRCGNGGRANCDASLIVTAALHLITFETEVYHQGLKIDLETHSLPVVVISNICQMPNAWASILWYNMLTNNPKNVNFFTKPPIGTWDQVAEVLSWQFSSTTKRGLSIEQLTTLAEKLLGPGVNYSGCQITWAKFCKENMAGKGFSFWVWLDNIIDLVKKYILALWNEGYIMGFISKERERAILSTKPPGTFLLRFSESSKEGGVTFTWVEKDISGKTQIQSVEPYTKQQLNNMSFAEIIMGYKIMDATNILVSPLVYLYPDIPKEEAFGKYCRPESQEHPEADPGSAAPYLKTKFICVTPTTCSNTIDLPMSPRTLDSLMQFGNNGEGAEPSAGGQFESLTFDMELTSECATSPM
notes: cloned by Ivan Ng in the laboratory of Marie Bogoyevitch and David Jans; source: HeLa cells, transiently transfected, in live cells
- stoichiometry N: 2
